Reference: US20190352359A1 (IMMATICS BIOTECHNOLOGIES, published 2019)

molecular target: T1, HLA-A*24; test: UV peptide-exchange ELISA (anti-b2m); yield grade ++ = >20%
T1 construct: Monomers captured on streptavidin plates; also called peptide-receptive MHC molecules; MHC complexes
Text: (§1) Candidate peptides for T cell based therapies according to the present invention were further tested for their MHC binding capacity (affinity). The individual peptide-MHC complexes were produced by UV-ligand exchange, where a UV-sensitive peptide is cleaved upon UV-irradiation, and exchanged with the peptide of interest as analyzed. Only peptide candidates that can effectively bind and stabilize the peptide-receptive MHC molecules prevent dissociation of the MHC complexes. To determine the yield of the exchange reaction, an ELISA was performed based on the detection of the light chain (p2m) of stabilized MHC complexes. The assay was performed as generally described in Rodenko et al. (Rodenko et al., 2006)
(§2) 96 well MAXISorp plates (NUNC) were coated over night with 2 ug/ml streptavidin in PBS at room temperature, washed 4× and blocked for 1 h at 37° C. in 2% BSA containing blocking buffer. Refolded HLA-A*02:01/MLA-001 monomers served as standards, covering the range of 15-500 ng/ml. Peptide-MHC monomers of the UV-exchange reaction were diluted 100-fold in blocking buffer. Samples were incubated for 1 h at 37° C., washed four times, incubated with 2 ug/ml HRP conjugated anti-β2m for 1h at 37° C., washed again and detected with TMB solution that is stopped with […]. Absorption was measured at 450 nm. Candidate peptides that show a high exchange yield (preferably higher than 50%, most preferred higher than 75%) are generally preferred for a generation and production of antibodies or fragments thereof, and/or T cell receptors or fragments thereof, as they show sufficient avidity to the MHC molecules and prevent dissociation of the MHC complexes.

peptide exchange yield [%] | Binder
20 to 50 | SHIGVVLAF (also called SHIGVVLAF) [OR51E2-005]
20 to 50 | RAMCAMMSF (also called RAMCAMMSF) [TGM4-002]
20 to 50 | ASAALTGFTF (also called ASAALTGFTF) [SLC45A3-003]

Second part, the binder before the results:

Binder | peptide exchange yield [%]
EMFFSPQVF (also called EMFFSPQVF) [ACTL8-002] | 20 to 50
RALTETIMF (also called RALTETIMF) [ALP-011] | 20 to 50
VLASAHILQF (also called VLASAHILQF) [BTBD16-005] | 20 to 50
GYGLTRVQPF (also called GYGLTRVQPF) [ACTL8-003] | 20 to 50
THSGGTNLF (also called THSGGTNLF) [MMP12-019] | 20 to 50
KYMSRVLFVY (also called KYMSRVLFVY) [CHRNA9-002] | 20 to 50
TDLVQFLLF (also called TDLVQFLLF) [MAGEA10-003] | 20 to 50
AQHSLTQLF (also called AQHSLTQLF) [GPC2-002] | 20 to 50
WFFQGAQYW (also called WFFQGAQYW) [MMP11-024] | 20 to 50

molecular target: T1, HLA-A*24; test: UV peptide-exchange ELISA (anti-b2m); yield grade +++ = >50
Text: as §1, §2

peptide exchange yield [%] | Binder
50 to 75 | NYFLDPVTI (also called NYFLDPVTI) [TRI-005]
50 to 75 | FYPDEDDFYF (also called FYPDEDDFYF) [MYCN-002]
50 to 75 | LHLYCLNTF (also called LHLYCLNTF) [PGR-003]
50 to 75 | GYFLAQYLM (also called GYFLAQYLM) [TRPM8-008]
50 to 75 | RYLIIKYPF (also called RYLIIKYPF) [SUCN-003]
50 to 75 | MDQNQVVWTF (also called MDQNQVVWTF) [ROS-008]
50 to 75 | YSLLDPAQF (also called YSLLDPAQF) [SOX14-002]
50 to 75 | VYSSFVFNLF (also called VYSSFVFNLF) [NLRP4-007]
50 to 75 | RILTEFELL (also called RILTEFELL) [TRIM31-001]
50 to 75 | IYFNHRCF (also called IYFNHRCF) [SFMBT1-001]
50 to 75 | MMVTVVALF (also called MMVTVVALF) [QRFPR-003]
50 to 75 | IHGIKFHYF (also called IHGIKFHYF) [NMUR2-004]
50 to 75 | KDLMKAYLF (also called KDLMKAYLF) [TXNDC16-006]
50 to 75 | IWAERIMF (also called IWAERIMF) [TDRD1-001]
50 to 75 | EYSLPVLTF (also called EYSLPVLTF) [PTP-037]
50 to 75 | QYAAAITNGL (also called QYAAAITNGL) [SALL3-002]
50 to 75 | VYSSFVFNL (also called VYSSFVFNL) [NLRP4-006]
50 to 75 | VCWNPFNNTF (also called VCWNPFNNTF) [RNF183-001]
50 to 75 | QHMLPFWTDL (also called QHMLPFWTDL) [NLRP2-009]
50 to 75 | RYKMLIPF (also called RYKMLIPF) [NLRP2-010]

Continued, binder first:

Binder | peptide exchange yield [%]
KTKRWLWDF (also called KTKRWLWDF) [COL11A1-004] | 50 to 75
LSCTATPLF (also called LSCTATPLF) [KHDC1L-001] | 50 to 75
EAYSYPPATI (also called EAYSYPPATI) [HMCN1-006] | 50 to 75
KYKQHFPEI (also called KYKQHFPEI) [MAGEB17-001] | 50 to 75
YYIGIVEEY (also called YYIGIVEEY) [HEPHL-007] | 50 to 75
KQMQEFFGL (also called KQMQEFFGL) [MMP1-010] | 50 to 75
NAFEAPLTF (also called NAFEAPLTF) [BRCA2-004] | 50 to 75
RSMEHPGKLLF (also called RSMEHPGKLLF) [ESR1-010] | 50 to 75
IYIIMQSCW (also called IYIIMQSCW) [FLT3-011] | 50 to 75
MSYSCGLPSL (also called MSYSCGLPSL) [KRT33A-001] | 50 to 75
ISMSATEFLL (also called ISMSATEFLL) [CYP1A1-001] | 50 to 75
MYNMVPFF (also called MYNMVPFF) [DCT-002] | 50 to 75
FIPVAWLIF (also called FIPVAWLIF) [MRGPRX4-001] | 50 to 75
YIPMSVMLF (also called YIPMSVMLF) [HTR7-002] | 50 to 75
DIYVTGGHLF (also called DIYVTGGHLF) [KLHDC7B-005] | 50 to 75
SYLKDPMIV (also called SYLKDPMIV) [DDX53-001] | 50 to 75
MHPGVLAAFLF (also called MHPGVLAAFLF) [MMP13-005] | 50 to 75
KALMSAFYTF (also called KALMSAFYTF) [MMP11-022] | 50 to 75
KYYIATMAL (also called KYYIATMAL) [CHRNA9-003] | 50 to 75
LFDHGGTVFF (also called LFDHGGTVFF) [ANO7-003] | 50 to 75
FLPALYSLL (also called FLPALYSLL) [CXCR3-001] | 50 to 75
VLAPVSGQF (also called VLAPVSGQF) [FCRL5-009] | 50 to 75
